Data: patent US20110059095A1 (Regeneron, published 2011)
Numbering of substitutions follows the chain as printed.

T1: C-terminal biotinylated human PAR-2 peptide SEQ ID NO:875 (Leu-38 to Ala) (human, not fully specified; C-terminal biotin (K-B))
T1 construct: alanine-scan mutant
T1 peptide: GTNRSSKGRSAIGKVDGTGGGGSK

T2: Peptide J (pig PAR-2) (Pig (Sus scrofa))
T2 peptide: GTSRPSKGRSLIGKADNT

T3: full length mouse PAR-2 (mouse, UniProt P55086 26-399)
T3 construct: also called 293/D9/mPAR-2rec cells
T3 chain: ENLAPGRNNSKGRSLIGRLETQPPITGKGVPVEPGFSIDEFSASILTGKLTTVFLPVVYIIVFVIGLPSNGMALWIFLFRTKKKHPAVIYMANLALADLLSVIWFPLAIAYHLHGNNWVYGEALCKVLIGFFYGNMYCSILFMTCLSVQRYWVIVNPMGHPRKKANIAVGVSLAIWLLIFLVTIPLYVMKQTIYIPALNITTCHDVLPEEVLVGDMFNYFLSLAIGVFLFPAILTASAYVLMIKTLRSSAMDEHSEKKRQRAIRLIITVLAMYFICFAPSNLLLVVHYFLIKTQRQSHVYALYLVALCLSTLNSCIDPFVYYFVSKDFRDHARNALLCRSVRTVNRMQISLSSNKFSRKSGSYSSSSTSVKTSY

T4: Peptide D (N-terminal domain of human PAR-2-mouse IgG2a) (Human)
T4 chain: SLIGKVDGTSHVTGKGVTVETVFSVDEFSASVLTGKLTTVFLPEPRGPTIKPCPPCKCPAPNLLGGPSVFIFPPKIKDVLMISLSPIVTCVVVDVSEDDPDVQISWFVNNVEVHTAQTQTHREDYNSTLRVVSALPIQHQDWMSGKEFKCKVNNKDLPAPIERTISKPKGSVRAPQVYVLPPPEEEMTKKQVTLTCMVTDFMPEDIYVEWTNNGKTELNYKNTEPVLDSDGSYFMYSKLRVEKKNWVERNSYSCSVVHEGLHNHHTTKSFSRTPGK

T5: Peptide E (mouse PAR-2), unbiotinylated (Mouse (Mus musculus))
T5 construct: also called Peptide E No Biotin
T5 peptide: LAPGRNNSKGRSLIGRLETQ

B1: H4H588N (antibody, human IgG4, V domains shown)
VH: EVQLLESGGGLVQPGGSLRLSCAASGFTFSSYAMTWVRQAPGKGLYWVSAISGGRGSAYYADSVKGRFTISRDNSKNTLYLQMNSLRAEDTAVYYCAKEGDSGYDLAYWGRGTLVTVSS
VL: DIQMTQSPSSLSASVGDRVTITCRARQGISNNLAWLQQKPGKAPKSLIYAASSLQSGIPSKFSGSGSGTYFTLTISSLQPEDFATYYCQQYKSSPLTFGGGTKVEIK
notes: also called H2M588N variable regions
B2: H4H583P (antibody, human IgG4, V domains shown)
VH: QVQLVESGGGVVQPGMSLRLSCTASGFTFRRYGMHWVRQAPGKGLEWVAVIWYDGSNKYYADSVKGRFTITRDNSKNTLYLQMNSLRAEDTAIYFCASEITIGDWFDPRGQGTLVTVSS
VL: AIQMTQSPSSLSASVGDRVTITCRASQGIRNDLGWFQQKPGKVPKLLIYAASTLHSGVPSRFSGSGFGTDFTLTISSLQPEDFATYYCLQDFNYPLTFGGGTKVEIK
notes: also called H1H583P variable regions
B3: H4H579P (antibody, human IgG4, V domains shown)
VH: QVQLVESGGGVVQPGRSLRLSCVASGFTFSRYGMHWVRQAPGKGLEWLIVISYDGINKYYADSVKGRFTISRDNSKNTVYLQMNSLRAEDTGVYYCAKGDFWSGYFDYWGQGTLVTVSS
VL: DIVMTQTPLSSPVTLGQPASISCRSSQSLVHSDGNTYLSWLHQRPGQPPRLLIYKISNRFSGVPDRFSGSGAGTDFTLQISRVEAEDVGIYYCMQGTQFPTFGGGTKVEIK
notes: also called H1H579P variable regions
B4: H4H581P (antibody, human IgG4, V domains shown)
VH: B3 VH with M34I, L48V, G92A
VL: B3 VL with G96A
notes: also called mAb H4H581P; H1H581P variable regions
B5: H4H585P (antibody, human IgG4, V domains shown)
VH: B3 VH with G92A
VL: B3 VL
notes: also called H1H585P variable regions

How the values were obtained:
[1] = target: T6, full length human PAR-2 (human, UniProt P55085 26-397); test: cell-based or functional assay
T6 sequence (P55085 26-397 G138A limits assumed): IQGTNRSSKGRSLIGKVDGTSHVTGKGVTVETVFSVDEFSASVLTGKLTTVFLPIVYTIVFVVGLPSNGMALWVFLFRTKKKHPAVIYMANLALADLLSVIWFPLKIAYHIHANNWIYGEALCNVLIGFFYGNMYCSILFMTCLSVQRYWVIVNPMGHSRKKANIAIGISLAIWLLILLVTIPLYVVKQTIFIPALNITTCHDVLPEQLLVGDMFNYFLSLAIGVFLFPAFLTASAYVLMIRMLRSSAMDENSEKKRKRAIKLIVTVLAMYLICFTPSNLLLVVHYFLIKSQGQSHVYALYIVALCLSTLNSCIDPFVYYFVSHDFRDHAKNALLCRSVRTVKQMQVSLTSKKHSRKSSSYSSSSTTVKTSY

[2] = target: T1, C-terminal biotinylated human PAR-2 …; test: BLI Exp2
Description: In order to more particularly identify the amino acids of PAR-2 with which the PAR-2 antibodies interact, an alanine scanning study was carried out using peptides comprising the activating PAR-2 protease cleavage site.
The ability of each peptide mutant to bind to PAR-2 antibodies was measured using biolayer interferometry (Octet Red; ForteBio). Each peptide (2.5 μg/ml) was captured on streptavidin coated biosensor tips (Octet SA sensor) for 10 seconds. To measure binding and dissociation between each peptide and PAR-2 antibody, the peptide-coated biosensors were contacted with 200 nM solutions of PAR-2 antibodies for 5 minutes (binding) followed by transfer to buffer with no antibody for 10 min (dissociation). […] The results are expressed as percent binding and percent T_{1/2} relative to WT peptide (Tables 24-28).

[3] = target: T2, Peptide J (pig PAR-2); test: SPR, antibody captured
[4] = target: T3, full length mouse PAR-2; test: MSD cell binding
Method in brief: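 Antibodies, two-fold dilutions from 100 nM to 0.098 nM, bound for 1 h at room temperature to HEK293/D9 cells stably expressing human or mouse PAR-2, detected by sulfo-tagged anti-human IgG electrochemiluminescence. Parental 293/D9 signal was subtracted; EC50 and Bmax came from sigmoidal dose-response fits.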

[5] = target: T4, Peptide D (N-terminal domain of human …); test: peptide ELISA
[6] = target: T6, full length human PAR-2; test: cell-based or functional assay; remark: listed apart in the source
[7] = target: T5, Peptide E (mouse PAR-2), unbiotinylated; test: peptide ELISA titration; ELISA titration, antibody 13.3 nM to 0.22 pM, sigmoidal fit
Description: Anti-PAR-2 antibodies were tested for their ability to bind to the PAR-2 peptides. Various PAR-2 Peptides (Table 3) were coated onto 96-well plates at a concentration of 2 μg/ml and incubated overnight followed by blocking in a suitable blocking agent for one hour. […] Purified anti-PAR-2 antibodies were added to the plate coated with PAR-2 peptides to a final concentration ranging from 0.2 to 2.0 μg/ml and incubated for one hour at room temperature. Detection of bound antibodies was determined with Horse-Radish Peroxidase (HRP) conjugated anti-mouse or human IgG (Jackson Immuno Research Lab, West Grove, Pa.) and developed by standard colorimetric response using tetramethylbenzidine (TMB) substrate. Absorbance was read at OD₄₅₀ for 0.1 second.
In another experiment, selected anti-PAR-2 antibodies cloned onto human IgG4 were tested for binding to unbiotinylated and biotinylated forms of PAR-2 peptides (Peptides A, E, F and G; as described above). […] Absorbance values at 450 nm were analyzed using a sigmoidal dose-response model in GraphPad Prism (GraphPad Software, Inc., La Jolla, Calif.) and EC₅₀ values were reported (Table 9). EC₅₀ values are defined as the antibody concentration required to achieve 50% maximal binding to PAR-2 peptide.

Row | Binder | IC50, NF-kB-luciferase, 10 nM Human Trypsin 1 [1] | IC50, NF-kB-luciferase, 200 nM Factor Xa [1] | IC50, NF-kB-luciferase, 750 nM Lung Tryptase [1] | % Rel Binding [2] | % Rel T1/2 [2] | binding result [5] | IC50, calcium mobilization FLIPR, 100 nM Trypsin [6] | EC50 [7] | other results
1 | B1 | 42.7 nM | 17.1 nM | 1.6 nM | 105% | 42% | binds | 29.5 nM |  | binding result [3]: no binding; binding result [4]: no binding (tested: 100 nM to 0.098 nM antibody)
2 | B2 |  |  |  |  |  |  |  |  | Kd [3]: 190 nM; T1/2 [3]: 9.6 s; Bmax [4]: 7220 MSD Unit; EC50 [4]: 9.28 nM
3 | B3 |  |  |  |  |  |  |  | 0.713 nM | 
4 | B4 | 7.4 nM | 5.3 nM | 1.1 nM | 19% | 0% | binds | 55 nM |  | 
5 | B5 |  |  |  |  |  |  |  | 0.308 nM | 
